Source: PMC8851480 (Proceedings of the National Academy of Sciences of the …, 2022)

B1: Arg9-EBD peptide (28-amino-acid C terminus of the EBP50 EBD with an upstream 9-arginine sequence) (peptide)
peptide: RRRRRRRRRKERAHQKRSSKRAPQMDWSKKNELFSNL

Experiments:
[1] = biological target: N-terminal FLAG-tagged EBP50 (ERM-binding phosphoprotein 50) (human) (UniProt O14745); assay: RNA immunoprecipitation
[2] = biological target: ezrin, endogenous in HEK293T cells (human (endogenous in HEK293T), UniProt P15311 1-586); assay: RNA immunoprecipitation
Sequence of ezrin, endogenous in HEK293T cells (P15311 whole entry): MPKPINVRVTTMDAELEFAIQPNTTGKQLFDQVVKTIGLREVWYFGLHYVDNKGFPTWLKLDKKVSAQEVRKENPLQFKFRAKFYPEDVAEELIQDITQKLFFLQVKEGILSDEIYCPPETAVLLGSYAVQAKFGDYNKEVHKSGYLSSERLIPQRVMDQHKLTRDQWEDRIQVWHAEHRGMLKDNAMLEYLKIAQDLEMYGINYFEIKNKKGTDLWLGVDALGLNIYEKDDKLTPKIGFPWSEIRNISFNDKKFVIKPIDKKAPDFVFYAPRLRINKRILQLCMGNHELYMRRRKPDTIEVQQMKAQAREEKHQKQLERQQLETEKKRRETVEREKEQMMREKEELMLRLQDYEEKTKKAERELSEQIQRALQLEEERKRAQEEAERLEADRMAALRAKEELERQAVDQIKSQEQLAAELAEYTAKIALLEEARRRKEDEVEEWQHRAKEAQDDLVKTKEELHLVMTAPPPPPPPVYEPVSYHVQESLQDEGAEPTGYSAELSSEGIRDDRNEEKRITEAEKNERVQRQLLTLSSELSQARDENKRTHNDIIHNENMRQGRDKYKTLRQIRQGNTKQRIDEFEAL

| Molecule | fold enrichment of EZR mRNA over control IgG (RIP-qRT-PCR) [1] [fold] | fold reduction of the EBP50-EZR mRNA RIP signal against control peptide [2] [fold] |
| --- | --- | --- |
| ezrin, endogenous in HEK293T cells (from UniProt P15311 1-586) (natural protein) | 100 |  |
| B1 |  | ~10 |
